The values below come from US20180339041A1 (Kyowa Kirin, published 2018).

T1: C-terminally FLAG-tagged human Gas6 recombinant protein (hGas6-F) (human, UniProt Q14393 31-678, gamma-carboxylated glutamic acid residues in the Gla domain (producer cells co-express rat VKOR and human GGCX); positions not given)
T1 construct: also called human Gas6-F; human Gas6 protein
T1 sequence: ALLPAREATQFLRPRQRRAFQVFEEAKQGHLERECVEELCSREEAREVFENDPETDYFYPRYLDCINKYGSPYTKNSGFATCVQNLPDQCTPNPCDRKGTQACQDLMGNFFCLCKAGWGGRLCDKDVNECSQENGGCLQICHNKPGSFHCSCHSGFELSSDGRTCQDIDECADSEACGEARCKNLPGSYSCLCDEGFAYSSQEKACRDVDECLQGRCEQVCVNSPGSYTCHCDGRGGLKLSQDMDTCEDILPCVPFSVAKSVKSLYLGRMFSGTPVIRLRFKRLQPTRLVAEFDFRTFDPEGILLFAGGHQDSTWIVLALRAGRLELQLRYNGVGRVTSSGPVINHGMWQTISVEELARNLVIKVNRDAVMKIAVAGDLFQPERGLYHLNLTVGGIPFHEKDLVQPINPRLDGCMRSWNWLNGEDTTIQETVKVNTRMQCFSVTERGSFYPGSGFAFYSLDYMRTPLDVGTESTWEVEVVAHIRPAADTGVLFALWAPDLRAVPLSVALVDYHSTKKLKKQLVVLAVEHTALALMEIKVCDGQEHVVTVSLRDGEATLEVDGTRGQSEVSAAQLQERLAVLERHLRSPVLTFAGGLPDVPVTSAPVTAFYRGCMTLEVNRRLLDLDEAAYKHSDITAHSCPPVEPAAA

B1: hzKM5321 LV6HV1 antibody (antibody, V domains shown)
VH: QVHLVQSGSELKKPGASVKISCKASGYTFTNYGMNWVRQAPGQGLKWMGWINTNTGEPTYTEEFKGRFVFSLDTSVTTSYLQISTLKAEDTAVYFCARDEGWFVYWGQGTLVTVSS
VL: ETTLTQSPSSLSVSTGDRVTITCITSTDIDDDMNWYQQKPGKPPKLLISEGNTLRPGVPSRFSSSGSGTDFTLTISSTQPEDFADYYCLQTDSVPLTFGQGTKVEIK
notes: Humanized; variant human IgG4 constant region (EU S228P, L235E, R409K), human kappa; also called B-22; LV6HV1
B2: hzKM5321 LV1bHV7 antibody (antibody, V domains shown)
VH: QIHLVQSGPELKKPGASVKISCKASGYTFTNYGMNWVKQAPGQGLKWMGWINTNTGEPTYTEEFKGRFVFSLDTSVTTAYLQISTLKAEDTATYFCARDEGWFVYWGQGTLITVSS
VL: ETTLTQSPSSLSASVGDRVTITCITSTDIDDDMNWYQQKPGKAPKLLISEGNTLRPGVPSRFSGSGSGTDFTLTISSLQPEDFADYYCLQTDSVPLTFGQGTKVEIK
notes: Humanized; variant human IgG4 constant region (EU S228P, L235E, R409K), human kappa; also called B-14; LV1bHV7
B3: hzKM5321 LV0HV7 antibody (antibody, V domains shown)
VH: QIHLVQSGPELKKPGASVKISCKASGYTFTNYGMNWVKQAPGQGLKWMGWINTNTGEPTYTEEFKGRFVFSLDTSVTTAYLQISTLKAEDTATYFCARDEGWFVYWGQGTLITVSS
VL: ETTLTQSPSSLSASVGDRVTITCITSTDIDDDMNWYQQKPGKAPKLLISEGNTLRPGVPSRFSGSGSGTDFTLTISSLQPEDFATYYCLQTDSVPLTFGQGTKVEIK
notes: Humanized; variant human IgG4 constant region (EU S228P, L235E, R409K), human kappa; also called B-12; LV0HV7
B4: hzKM5321 LV1aHV7 antibody (antibody, V domains shown)
VH: QIHLVQSGPELKKPGASVKISCKASGYTFTNYGMNWVKQAPGQGLKWMGWINTNTGEPTYTEEFKGRFVFSLDTSVTTAYLQISTLKAEDTATYFCARDEGWFVYWGQGTLITVSS
VL: ETTLTQSPSSLSASVGDRVTITCITSTDIDDDMNWYQQKPGKPPKLLISEGNTLRPGVPSRFSGSGSGTDFTLTISSLQPEDFATYYCLQTDSVPLTFGQGTKVEIK
notes: Humanized; variant human IgG4 constant region (EU S228P, L235E, R409K), human kappa; also called B-13; LV1aHV7
B5: hzKM5321 LV3HV0 antibody (antibody, V domains shown)
VH: QVHLVQSGSELKKPGASVKISCKASGYTFTNYGMNWVRQAPGQGLEWMGWINTNTGEPTYTEEFKGRFVFSLDTSVTTSYLQISTLKAEDTAVYFCARDEGWFVYWGQGTLVTVSS
VL: ETTLTQSPSSLSASTGDRVTITCITSTDIDDDMNWYQQKPGKAPKLLISEGNTLRPGVPSRFSGSGSGTDFTLTISSTQPEDFADYYCLQTDSVPLTFGQGTKVEIK
notes: Humanized; variant human IgG4 constant region (EU S228P, L235E, R409K), human kappa; also called B-06; LV3HV0
B6: hzKM5321 LV1aHV0 antibody (antibody, V domains shown)
VH: QVHLVQSGSELKKPGASVKISCKASGYTFTNYGMNWVRQAPGQGLEWMGWINTNTGEPTYTEEFKGRFVFSLDTSVTTSYLQISTLKAEDTAVYFCARDEGWFVYWGQGTLVTVSS
VL: ETTLTQSPSSLSASVGDRVTITCITSTDIDDDMNWYQQKPGKPPKLLISEGNTLRPGVPSRFSGSGSGTDFTLTISSLQPEDFATYYCLQTDSVPLTFGQGTKVEIK
notes: Humanized; variant human IgG4 constant region (EU S228P, L235E, R409K), human kappa; also called B-03; LV1aHV0
B7: hzKM5321 LV1cHV0 antibody (antibody, V domains shown)
VH: QVHLVQSGSELKKPGASVKISCKASGYTFTNYGMNWVRQAPGQGLEWMGWINTNTGEPTYTEEFKGRFVFSLDTSVTTSYLQISTLKAEDTAVYFCARDEGWFVYWGQGTLVTVSS
VL: ETTLTQSPSSLSVSVGDRVTITCITSTDIDDDMNWYQQKPGKAPKLLISEGNTLRPGVPSRFSGSGSGTDFTLTISSLQPEDFATYYCLQTDSVPLTFGQGTKVEIK
notes: Humanized; variant human IgG4 constant region (EU S228P, L235E, R409K), human kappa; also called B-05; LV1cHV0
B8: hzKM5321 LV1cHV7 antibody (antibody, V domains shown)
VH: QIHLVQSGPELKKPGASVKISCKASGYTFTNYGMNWVKQAPGQGLKWMGWINTNTGEPTYTEEFKGRFVFSLDTSVTTAYLQISTLKAEDTATYFCARDEGWFVYWGQGTLITVSS
VL: ETTLTQSPSSLSVSVGDRVTITCITSTDIDDDMNWYQQKPGKAPKLLISEGNTLRPGVPSRFSGSGSGTDFTLTISSLQPEDFATYYCLQTDSVPLTFGQGTKVEIK
notes: Humanized; variant human IgG4 constant region (EU S228P, L235E, R409K), human kappa; also called B-15; LV1cHV7
B9: hzKM5321 LV1bHV0 antibody (antibody, V domains shown)
VH: QVHLVQSGSELKKPGASVKISCKASGYTFTNYGMNWVRQAPGQGLEWMGWINTNTGEPTYTEEFKGRFVFSLDTSVTTSYLQISTLKAEDTAVYFCARDEGWFVYWGQGTLVTVSS
VL: ETTLTQSPSSLSASVGDRVTITCITSTDIDDDMNWYQQKPGKAPKLLISEGNTLRPGVPSRFSGSGSGTDFTLTISSLQPEDFADYYCLQTDSVPLTFGQGTKVEIK
notes: Humanized; variant human IgG4 constant region (EU S228P, L235E, R409K), human kappa; also called B-04; LV1bHV0
B10: hzKM5320 LV5HV6 antibody (antibody, V domains shown)
VH: QVQLVQSGPELKKPGASVKISCKASGYTFTNYGMNWVKQAPGQGLKWMGWINTETGEPTYSDDFKGRFVFSLDTSVSTAYLQISSLKAEDTATYFCAREDGYYGTLDYWGQGTTVTVSS
VL: DIVMTQSPDSLAVSLGERVTINCKASQSVSNDVAWYQQKPGQSPKVLIYYASNRYTGVPDRFSGSGSGTDFTFTISSVQAEDVAVYFCQQDYSSPWTFGQGTKLEIK
notes: Humanized; variant human IgG4 constant region (EU S228P, L235E, R409K), human kappa; also called A-25
B11: hzKM5320 LV6HV8 antibody (antibody, V domains shown)
VH: QIQLVQSGPELKKPGASVKISCKASGYTFTNYGMNWVKQAPGQGLKWMGWINTETGEPTYSDDFKGRFVFSLDTSVTTAYLQISSLKAEDTATYFCAREDGYYGTLDYWGQGTTVTVSS
VL: DIVMTQSPDSLAVSAGERVTINCKASQSVSNDVAWYQQKPGQSPKVLIYYASNRYTGVPDRFSGSGSGTDFTFTISSVQAEDVAVYFCQQDYSSPWTFGQGTKLEIK
notes: Humanized; variant human IgG4 constant region (EU S228P, L235E, R409K), human kappa; also called A-17
B12: hzKM5320 LV6HV0 antibody (antibody, V domains shown)
VH: QVQLVQSGSELKKPGASVKVSCKASGYTFTNYGMNWVRQAPGQGLEWMGWINTETGEPTYSDDFKGRFVFSLDTSVSTAYLQISSLKAEDTAVYYCAREDGYYGTLDYWGQGTTVTVSS
VL: DIVMTQSPDSLAVSAGERVTINCKASQSVSNDVAWYQQKPGQSPKVLIYYASNRYTGVPDRFSGSGSGTDFTFTISSVQAEDVAVYFCQQDYSSPWTFGQGTKLEIK
notes: Humanized; variant human IgG4 constant region (EU S228P, L235E, R409K), human kappa; also called A-09
B13: hzKM5320 LV5HV8 antibody (antibody, V domains shown)
VH: QIQLVQSGPELKKPGASVKISCKASGYTFTNYGMNWVKQAPGQGLKWMGWINTETGEPTYSDDFKGRFVFSLDTSVTTAYLQISSLKAEDTATYFCAREDGYYGTLDYWGQGTTVTVSS
VL: DIVMTQSPDSLAVSLGERVTINCKASQSVSNDVAWYQQKPGQSPKVLIYYASNRYTGVPDRFSGSGSGTDFTFTISSVQAEDVAVYFCQQDYSSPWTFGQGTKLEIK
notes: Humanized; variant human IgG4 constant region (EU S228P, L235E, R409K), human kappa; also called A-16

In this experiment the target is T1, C-terminally FLAG-tagged human Gas6 …. The experiment is described as follows: SPR Biacore T100, captured antibody, Gas6 analyte, first test. As for the experimental part: An anti-human IgG antibody was immobilized on a CM5 sensor chip (manufactured by GE Healthcare Japan Corp.) using Human Antibody Capture Kit (manufactured by GE Healthcare Japan Corp.) according to the attached manual. Each test antibody adjusted to 1 μg/mL was added for 10 seconds at a flow rate of 10 μL/min to flow cells. […] The measurement was performed by the […] method. The obtained sensorgram was analyzed using Bia Evaluation Software (manufactured by GE Healthcare Japan Corp.), and the kinetic constant of each antibody was calculated.
Regarding B1, the dissociation constant Kd was below 2.35 nM, the off-rate (koff) was 0.000239 s⁻¹ and the kon is above 102000 M⁻¹ s⁻¹.
The like results for B2 were, in that order, below 7.49 nM, 0.000751 s⁻¹ and above 100000 M⁻¹ s⁻¹.
Consider B3, for which the Kd is below 6.74 nM, the koff came to 0.000672 s⁻¹ and the kon is above 100000 M⁻¹ s⁻¹.
In the case of B4, the Kd is below 6.83 nM, the dissociation rate constant (koff) was found to be 0.000684 s⁻¹ and the kon was above 100000 M⁻¹ s⁻¹.
As to B5, the Kd is below 1.86 nM, the koff came out at 0.000285 s⁻¹ and the on-rate (kon) is above 153000 M⁻¹ s⁻¹.
As for B6, the dissociation constant (Kd) was below 3.92 nM, the dissociation rate constant (koff) is 0.000492 s⁻¹ and the on-rate constant (kon) is above 126000 M⁻¹ s⁻¹.
For the molecule B7, the Kd was below 4.05 nM, the koff came to 0.000511 s⁻¹ and the kon was above 126000 M⁻¹ s⁻¹.
For B8, in that order: below 7.45 nM, 0.00075 s⁻¹ and above 101000 M⁻¹ s⁻¹.
For the molecule B9, the dissociation constant (Kd) was below 4.26 nM, the koff is 0.000543 s⁻¹ and the kon was above 127000 M⁻¹ s⁻¹.
On to B10, for which the dissociation constant Kd is below 1.8 nM, the dissociation rate constant (koff) was found to be 0.000147 s⁻¹ and the on-rate constant (kon) is above 81700 M⁻¹ s⁻¹.
With B11, the Kd is below 2.18 nM, the koff came out at 0.000158 s⁻¹ and the association rate constant (kon) is above 72500 M⁻¹ s⁻¹.
Regarding B12, the dissociation constant Kd was below 3.22 nM, the off-rate constant (koff) amounted to 0.000216 s⁻¹ and the kon is above 67200 M⁻¹ s⁻¹.
With B13, the Kd is below 2.11 nM, the koff worked out at 0.000155 s⁻¹ and the kon is above 73600 M⁻¹ s⁻¹.
